Results taken from patent publication EP4803139A2.
Blank lines part the entries; values can stand above or below the binder they belong to.

Columns and labels:
[1] = target: human PCSK9 (proprotein convertase subtilisin/kexin type 9), wild type (human) (UniProt Q8NBP7); assay: BIAcore SPR, human PCSK9, pH 7.4
[2] = target: human PCSK9 (proprotein convertase subtilisin/kexin type 9), wild type (human) (UniProt Q8NBP7); assay: KinExA solution equilibrium, PCSK9-coated beads
[3] = target: human PCSK9 (proprotein convertase subtilisin/kexin type 9), wild type (human) (UniProt Q8NBP7); assay: BIAcore SPR, antibody amine-coupled to CM5, PCSK9 as analyte, pH 7.4
[4] = target: human PCSK9 (proprotein convertase subtilisin/kexin type 9), wild type (human) (UniProt Q8NBP7); assay: BIAcore SPR, human PCSK9, pH 6.0
[5] = target: human PCSK9 (proprotein convertase subtilisin/kexin type 9), wild type (human) (UniProt Q8NBP7); assay: BIAcore solution equilibrium assay, 21B12 immobilised on CM5, one-site fit in KinExA Pro

Kd [1]: 0.47 nM
koff [1]: 4.98e-05 s⁻¹
kon [1]: 106000 M⁻¹ s⁻¹
Kd [2]: 0.015 nM
Kd [3]: 0.47 nM
Kd [4]: 0.029 nM
koff [4]: 7.01e-05 s⁻¹
kon [4]: 2.39e+06 M⁻¹ s⁻¹
B1: 16F12, anti-PCSK9 huIgG4 (antibody, V domains shown)
VH: QVHLVESGGGVVQPGRSLRLSCAASGFTFNSFGMHWVRQAPGKGLEWVALIWSDGSDEYYADSVKGRFTISRDNSKNTLYLQMNSLRAEDTAVYYCARAIAALYYYYGMDVWGQGTTVTVSS
VL: QSVLTQPPSVSAAPGQKVTISCSGSSSNIGNNFVSWYQQLPGTAPKLLIYDYNKRPSGIPDRFSGSKSGTSATLGITGLQTGDEADYYCGTWDSSLSAYVFGTGTRVTVLQ

Kd [1]: 0.19 nM
koff [1]: 6.63e-06 s⁻¹
kon [1]: 34900 M⁻¹ s⁻¹
Kd [3]: 0.19 nM
Kd [5]: 0.015 nM
Kd [4]: 0.0073 nM
koff [4]: 1.68e-05 s⁻¹
kon [4]: 2.29e+06 M⁻¹ s⁻¹
B2: 21B12, anti-PCSK9 huIgG4 (antibody, V domains shown)
VH: QVQLVQSGAEVKKPGASVKVSCKASGYTLTSYGISWVRQAPGQGLEWMGWVSFYNGNTNYAQKLQGRGTMTTDPSTSTAYMELRSLRSDDTAVYYCARGYGMDVWGQGTTVTVSS
VL: QSALTQPASVSGSPGQSITISCTGTSSDVGGYNSVSWYQQHPGKAPKLMIYEVSNRPSGVSNRFSGSKSGNTASLTISGLQAEDEADYYCNSYTSTSMVFGGGTKLTVLQ
